Experimental data reported in publication PMC7367873, “Dissecting the sequence determinants for dephosphorylation by the catalytic subunits of phosphatases PP1 and PP2A” (Nature Communications, 2020).

How the values were obtained:
[1] = test system: GFP-14-3-3β and its binding proteins; assay: GFP-14-3-3β co-IP with LC-MS/MS label-free quantification, untreated versus PP1c-treated; parameters: species or system human; conditions: GFP-14-3-3β co-IP LC-MS/MS; PP1 vs untreated; student's t-test; label-free quantification, 3 replicates each
GFP-14-3-3β = GFP-14-3-3β co-IP with LC-MS/MS, untreated GFP-14-3-3β versus GFP control (14-3-3 interactome); assay type: binding, human; conditions: GFP-14-3-3β co-IP LC-MS/MS; untreated vs GFP; student's t-test; label-free quantification, 3 replicates each

Molecule	Difference (log2), PP1 vs untreated [1] [log2]	Difference (log2), untreated vs GFP (GFP-14-3-3β) [log2]
IPO7 (protein, UniProt O95373 1-1038, looked up) Importin-7: MDPNTIIEALRGTMDPALREAAERQLNEAHKSLNFVSTLLQITMSEQLDLPVRQAGVIYLKNMITQYWPDRETAPGDISPYTIPEEDRHCIRENIVEAIIHSPELIRVQLTTCIHHIIKHDYPSRWTAIVDKIGFYLQSDNSACWLGILLCLYQLVKNYEYKKPEERSPLVAAMQHFLPVLKDRFIQLLSDQSDQSVLIQKQIFKIFYALVQYTLPLELINQQNLTEWIEILKTVVNRDVPNETLQVEEDDRPELPWWKCKKWALHILARLFERYGSPGNVSKEYNEFAEVFLKAFAVGVQQVLLKVLYQYKEKQYMAPRVLQQTLNYINQGVSHALTWKNLKPHIQGIIQDVIFPLMCYTDADEELWQEDPYEYIRMKFDVFEDFISPTTAAQTLLFTACSKRKEVLQKTMGFCYQILTEPNADPRKKDGALHMIGSLAEILLKKKIYKDQMEYMLQNHVFPLFSSELGYMRARACWVLHYFCEVKFKSDQNLQTALELTRRCLIDDREMPVKVEAAIALQVLISNQEKAKEYITPFIRPVMQALLHIIRETENDDLTNVIQKMICEYSEEVTPIAVEMTQHLAMTFNQVIQTGPDEEGSDDKAVTAMGILNTIDTLLSVVEDHKEITQQLEGICLQVIGTVLQQHVLEFYEEIFSLAHSLTCQQVSPQMWQLLPLVFEVFQQDGFDYFTDMMPLLHNYVTVDTDTLLSDTKYLEMIYSMCKKVLTGVAGEDAECHAAKLLEVIILQCKGRGIDQCIPLFVEAALERLTREVKTSELRTMCLQVAIAALYYNPHLLLNTLENLRFPNNVEPVTNHFITQWLNDVDCFLGLHDRKMCVLGLCALIDMEQIPQVLNQVSGQILPAFILLFNGLKRAYACHAEHENDSDDDDEAEDDDETEELGSDEDDIDEDGQEYLEILAKQAGEDGDDEDWEEDDAEETALEGYSTIIDDEDNPVDEYQIFKAIFQTIQNRNPVWYQALTHGLNEEQRKQLQDIATLADQRRAAHESKMIEKHGGYKFSAPVVPSSFNFGGPAPGMN	-0.3489	0.3162
LAMB3 (protein, UniProt Q13751 18-1172, looked up) Laminin subunit beta-3: QQACSRGACYPPVGDLLVGRTRFLRASSTCGLTKPETYCTQYGEWQMKCCKCDSRQPHNYYSHRVENVASSSGPMRWWQSQNDVNPVSLQLDLDRRFQLQEVMMEFQGPMPAGMLIERSSDFGKTWRVYQYLAADCTSTFPRVRQGRPQSWQDVRCQSLPQRPNARLNGGKVQLNLMDLVSGIPATQSQKIQEVGEITNLRVNFTRLAPVPQRGYHPPSAYYAVSQLRLQGSCFCHGHADRCAPKPGASAGPSTAVQVHDVCVCQHNTAGPNCERCAPFYNNRPWRPAEGQDAHECQRCDCNGHSETCHFDPAVFAASQGAYGGVCDNCRDHTEGKNCERCQLHYFRNRRPGASIQETCISCECDPDGAVPGAPCDPVTGQCVCKEHVQGERCDLCKPGFTGLTYANPQGCHRCDCNILGSRRDMPCDEESGRCLCLPNVVGPKCDQCAPYHWKLASGQGCEPCACDPHNSLSPQCNQFTGQCPCREGFGGLMCSAAAIRQCPDRTYGDVATGCRACDCDFRGTEGPGCDKASGRCLCRPGLTGPRCDQCQRGYCNRYPVCVACHPCFQTYDADLREQALRFGRLRNATASLWSGPGLEDRGLASRILDAKSKIEQIRAVLSSPAVTEQEVAQVASAILSLRRTLQGLQLDLPLEEETLSLPRDLESLDRSFNGLLTMYQRKREQFEKISSADPSGAFRMLSTAYEQSAQAAQQVSDSSRLLDQLRDSRREAERLVRQAGGGGGTGSPKLVALRLEMSSLPDLTPTFNKLCGNSRQMACTPISCPGELCPQDNGTACGSRCRGVLPRAGGAFLMAGQVAEQLRGFNAQLQRTRQMIRAAEESASQIQSSAQRLETQVSASRSQMEEDVRRTRLLIQQVRDFLTDPDTDAATIQEVSEAVLALWLPTDSATVLQKMNEIQAIAARLPNVDLVLSQTKQDIARARRLQAEAEEARSRAHAVEGQVEDVVGNLRQGTVALQEAQDTMQGTSRSLRLIQDRVAEVQQVLRPAEKLVTSMTKQLGDFWTRMEELRHQARQQGAEAVQAQQLAEGASEQALSAQEGFERIKQKYAELKDRLGQSSMLGEQGARIQSVKTEAEELFGETMEMMDRMKDMELELLRGSQAIMLRSADLTGLEKRVEQIRDHINGRVLYYATCK	-0.3598	0.9719
SFPQ (protein, UniProt P23246 1-707, looked up) Splicing factor, proline- and …: MSRDRFRSRGGGGGGFHRRGGGGGRGGLHDFRSPPPGMGLNQNRGPMGPGPGQSGPKPPIPPPPPHQQQQQPPPQQPPPQQPPPHQPPPHPQPHQQQQPPPPPQDSSKPVVAQGPGPAPGVGSAPPASSSAPPATPPTSGAPPGSGPGPTPTPPPAVTSAPPGAPPPTPPSSGVPTTPPQAGGPPPPPAAVPGPGPGPKQGPGPGGPKGGKMPGGPKPGGGPGLSTPGGHPKPPHRGGGEPRGGRQHHPPYHQQHHQGPPPGGPGGRSEEKISDSEGFKANLSLLRRPGEKTYTQRCRLFVGNLPADITEDEFKRLFAKYGEPGEVFINKGKGFGFIKLESRALAEIAKAELDDTPMRGRQLRVRFATHAAALSVRNLSPYVSNELLEEAFSQFGPIERAVVIVDDRGRSTGKGIVEFASKPAARKAFERCSEGVFLLTTTPRPVIVEPLEQLDDEDGLPEKLAQKNPMYQKERETPPRFAQHGTFEYEYSQRWKSLDEMEKQQREQVEKNMKDAKDKLESEMEDAYHEHQANLLRQDLMRRQEELRRMEELHNQEMQKRKEMQLRQEEERRRREEEMMIRQREMEEQMRRQREESYSRMGYMDPRERDMRMGGGGAMNMGDPYGSGGQKFPPLGGGGGIGYEANPGVPPATMSGSMMGSDMRTERFGQGGAGPVGGQGPRGMGPGTPAGYGRGREEYEGPNKKPRF	-0.3668	0.3721
RRP15 (protein, UniProt Q9Y3B9 2-282, looked up) RRP15-like protein: AAAAPDSRVSEEENLKKTPKKKMKMVTGAVASVLEDEATDTSDSEGSCGSEKDHFYSDDDAIEADSEGDAEPCDKENENDGESSVGTNMGWADAMAKVLNKKTPESKPTILVKNKKLEKEKEKLKQERLEKIKQRDKRLEWEMMCRVKPDVVQDKETERNLQRIATRGVVQLFNAVQKHQKNVDEKVKEAGSSMRKRAKLISTVSKKDFISVLRGMDGSTNETASSRKKPKAKQTEVKSEEGPGWTILRDDFMMGASMKDWDKESDGPDDSRPESASDSDT	-0.3533	0.6496
IARS (protein, UniProt P41252 1-1262, looked up) Isoleucine--tRNA ligase, …: MLQQVPENINFPAEEEKILEFWTEFNCFQECLKQSKHKPKFTFYDGPPFATGLPHYGHILAGTIKDIVTRYAHQSGFHVDRRFGWDCHGLPVEYEIDKTLGIRGPEDVAKMGITEYNNQCRAIVMRYSAEWKSTVSRLGRWIDFDNDYKTLYPQFMESVWWVFKQLYDKGLVYRGVKVMPFSTACNTPLSNFESHQNYKDVQDPSVFVTFPLEEDETVSLVAWTTTPWTLPSNLAVCVNPEMQYVKIKDVARGRLLILMEARLSALYKLESDYEILERFPGAYLKGKKYRPLFDYFLKCKENGAFTVLVDNYVKEEEGTGVVHQAPYFGAEDYRVCMDFNIIRKDSLPVCPVDASGCFTTEVTDFAGQYVKDADKSIIRTLKEQGRLLVATTFTHSYPFCWRSDTPLIYKAVPSWFVRVENMVDQLLRNNDLCYWVPELVREKRFGNWLKDARDWTISRNRYWGTPIPLWVSDDFEEVVCIGSVAELEELSGAKISDLHRESVDHLTIPSRCGKGSLHRISEVFDCWFESGSMPYAQVHYPFENKREFEDAFPADFIAEGIDQTRGWFYTLLVLATALFGQPPFKNVIVNGLVLASDGQKMSKRKKNYPDPVSIIQKYGADALRLYLINSPVVRAENLRFKEEGVRDVLKDVLLPWYNAYRFLIQNVLRLQKEEEIEFLYNENTVRESPNITDRWILSFMQSLIGFFETEMAAYRLYTVVPRLVKFVDILTNWYVRMNRRRLKGENGMEDCVMALETLFSVLLSLCRLMAPYTPFLTELMYQNLKVLIDPVSVQDKDTLSIHYLMLPRVREELIDKKTESAVSQMQSVIELGRVIRDRKTIPIKYPLKEIVVIHQDPEALKDIKSLEKYIIEELNVRKVTLSTDKNKYGIRLRAEPDHMVLGKRLKGAFKAVMTSIKQLSSEELEQFQKTGTIVVEGHELHDEDIRLMYTFDQATGGTAQFEAHSDAQALVLLDVTPDQSMVDEGMAREVINRIQKLRKKCNLVPTDEITVYYKAKSEGTYLNSVIESHTEFIFTTIKAPLKPYPVSPSDKVLIQEKTQLKGSELEITLTRGSSLPGPACAYVNLNICANGSEQGGVLLLENPKGDNRLDLLKLKSVVTSIFGVKNTELAVFHDETEIQNQTDLLSLSGKTLCVTAGSAPSLINSSSTLLCQYINLQLLNAKPQECLMGTVGTLLLENPLGQNGLTHQGLLYEAAKVFGLRSRKLKLFLNETQTQEITEDIPVKTLNMKTVYVSVLPTTADF	-0.336	-0.1582
PHGDH (protein, UniProt O43175 2-533, looked up) D-3-phosphoglycerate …: AFANLRKVLISDSLDPCCRKILQDGGLQVVEKQNLSKEELIAELQDCEGLIVRSATKVTADVINAAEKLQVVGRAGTGVDNVDLEAATRKGILVMNTPNGNSLSAAELTCGMIMCLARQIPQATASMKDGKWERKKFMGTELNGKTLGILGLGRIGREVATRMQSFGMKTIGYDPIISPEVSASFGVQQLPLEEIWPLCDFITVHTPLLPSTTGLLNDNTFAQCKKGVRVVNCARGGIVDEGALLRALQSGQCAGAALDVFTEEPPRDRALVDHENVISCPHLGASTKEAQSRCGEEIAVQFVDMVKGKSLTGVVNAQALTSAFSPHTKPWIGLAEALGTLMRAWAGSPKGTIQVITQGTSLKNAGNCLSPAVIVGLLKEASKQADVNLVNAKLLVKEAGLNVTTSHSPAAPGEQGFGECLLAVALAGAPYQAVGLVQGTTPVLQGLNGAVFRPEVPLRRDLPLLLFRTQTSDPAMLPTMIGLLAEAGVRLLSYQTSLVSDGETWHVMGISSLLPSLEAWKQHVTEAFQFHF	-0.3751	-0.2834
